Bridges are numbered along the chain shown (N, C = ends). Where no end group is shown, it is not given here. [ ]: non-standard residue; d: D form. The star is where a group is joined. FITC = O=C1OC2(c3ccc(O)cc3Oc3cc(O)ccc32)c2ccc(NC(=S)*)cc21; S5 = C=CCCC[C@](C)(N)C(=O)O
Assays:
[1] = biological target: T1, native EED in MLL-AF9 leukemia cells (UniProt Q921E6 2-441, limits assumed); assay: anti-FITC immunoprecipitation from peptide-treated MLL-AF9 cells, EED western
T1 construct: Endogenous intracellular protein
T1 sequence (Q921E6 2-441 limits assumed): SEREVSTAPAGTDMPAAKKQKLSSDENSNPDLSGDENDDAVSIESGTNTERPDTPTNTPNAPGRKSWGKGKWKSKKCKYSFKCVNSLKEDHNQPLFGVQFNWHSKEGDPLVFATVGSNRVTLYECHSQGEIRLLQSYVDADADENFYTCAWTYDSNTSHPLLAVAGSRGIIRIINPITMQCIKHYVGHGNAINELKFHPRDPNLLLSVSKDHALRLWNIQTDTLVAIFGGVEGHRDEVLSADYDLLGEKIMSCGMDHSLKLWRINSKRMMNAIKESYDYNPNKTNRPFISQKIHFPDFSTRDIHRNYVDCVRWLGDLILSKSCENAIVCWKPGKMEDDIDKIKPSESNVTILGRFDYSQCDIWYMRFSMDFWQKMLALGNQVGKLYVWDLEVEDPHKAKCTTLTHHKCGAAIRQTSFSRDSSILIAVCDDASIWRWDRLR
Procedure: To assess the interaction between SAH-EZH2 peptides and native EED, MLL-AF9 leukemia cells (2×10⁷) were cultured in 10 ml AF9 media using 10 cm dishes (BD Biosciences) and FITC-SAH-EZH2 peptides added to final concentration of 20 μM, followed by 8-12 h incubation. Treated cells were washed and trypsinized as above, lysed and then incubated with 50 μl of FITC-antibody (1 mg/ml) and 100 μl of protein G agarose (Roche) for 3 h. The amount of EED bound to FITC-SAH-EZH2 peptides was assessed by anti-EED western analysis (Millipore). To monitor for dissociation of native EED-EZH1/EZH2 complexes by SAH-EZH2, Sf21 cells were co-transfected with HA-EED and FLAG-EZH1 or FLAG-EZH2 baculovirus. EED-EZH1 and EED-EZH2 complexes were purified by anti-FLAG agarose (Sigma). EED-EZH1 and EED-EZH2 complexes (40 nM final concentration) were incubated with FITC-SAH-EZH2 peptides (final concentrations, 10, 3 and 1 μM) in 200 μl binding buffer for 2 h. After successive washes, the mixtures were incubated with anti-HA agarose (Sigma) and the level of HA-EED-bound EZH1 and EZH2 assessed by anti-HA western analysis.

purified EED (Example 6) = purified EED (Example 6) (UniProt O75530 1-441, limits assumed); assay: competitive fluorescence polarization: EED 200 nM, FITC-EZH2(42-68) 20 nM as competitor, 30 min
Chain of purified EED (Example 6) (O75530 whole entry): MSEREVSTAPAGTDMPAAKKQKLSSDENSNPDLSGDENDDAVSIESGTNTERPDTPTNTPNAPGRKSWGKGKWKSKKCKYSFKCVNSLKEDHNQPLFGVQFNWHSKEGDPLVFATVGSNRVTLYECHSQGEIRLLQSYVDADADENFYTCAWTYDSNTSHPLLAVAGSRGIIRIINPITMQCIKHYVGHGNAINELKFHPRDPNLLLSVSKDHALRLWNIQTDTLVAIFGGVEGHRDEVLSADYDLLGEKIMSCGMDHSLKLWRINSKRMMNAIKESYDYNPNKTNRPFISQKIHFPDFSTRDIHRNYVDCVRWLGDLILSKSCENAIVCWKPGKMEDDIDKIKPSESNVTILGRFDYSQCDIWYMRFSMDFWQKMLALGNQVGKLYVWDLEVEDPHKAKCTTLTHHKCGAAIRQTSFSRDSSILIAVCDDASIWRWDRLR
Procedure: The EED binding affinities of SAH-EZH2 and SAH-EZH2(42-68)AC were assessed by their capacities to displace FITC-labeled EZH2(42-68) peptide from EED. Serially diluted acetyl-SAH-EZH2 and the doubly stapled acetyl-SAH-EZH2(42-68)AC (dose range from 2.5 nM to 10 μIM) were incubated with purified EED (200 nM) and FITC-labeled EZH2(42-68) peptide (20 nM) for 30 min, followed by measurement of fluorescence polarization. N-terminal acetylated SAH-EZH2(42-68)AC displaced FITC-labeled EZH2(42-68) peptide from EED two times more efficiently than SAH-EZH2. The non-binding EZH2(47-64) construct was used as a negative control.

fold displacement efficiency against SAH-EZH2 (purified EED (Example 6)) [fold]	Binder	binding result [1]
	{FITC}-FSSNR[S5]KIL[S5]RTQILNQQWKQRRIQPV (staple 6-10, Negative control peptide; also called SAH-EZH2MUT; SAH-EZH2(42-68)A-E54,59Q) [FITC-SAH-EZH2A(42-68)E54Q/E59Q]	no binding (tested: 20 µM peptide on cells)
2	Ac-FSSNR[S5]KIL[S5]RT[S5]ILN[S5]EWKQRRIQPV (staple 6-10, 13-17, Doubly stapled peptide; also called doubly stapled SAH-EZH2 peptide) [acetyl-SAH-EZH2(42-68)AC]	
